Molecular target: Recombinant α2β1 integrin (UniProt P17301)
Assay: ELISA

Recombinant α2β1 integrin, sequence (P17301 30-1181, chain 1 of 2): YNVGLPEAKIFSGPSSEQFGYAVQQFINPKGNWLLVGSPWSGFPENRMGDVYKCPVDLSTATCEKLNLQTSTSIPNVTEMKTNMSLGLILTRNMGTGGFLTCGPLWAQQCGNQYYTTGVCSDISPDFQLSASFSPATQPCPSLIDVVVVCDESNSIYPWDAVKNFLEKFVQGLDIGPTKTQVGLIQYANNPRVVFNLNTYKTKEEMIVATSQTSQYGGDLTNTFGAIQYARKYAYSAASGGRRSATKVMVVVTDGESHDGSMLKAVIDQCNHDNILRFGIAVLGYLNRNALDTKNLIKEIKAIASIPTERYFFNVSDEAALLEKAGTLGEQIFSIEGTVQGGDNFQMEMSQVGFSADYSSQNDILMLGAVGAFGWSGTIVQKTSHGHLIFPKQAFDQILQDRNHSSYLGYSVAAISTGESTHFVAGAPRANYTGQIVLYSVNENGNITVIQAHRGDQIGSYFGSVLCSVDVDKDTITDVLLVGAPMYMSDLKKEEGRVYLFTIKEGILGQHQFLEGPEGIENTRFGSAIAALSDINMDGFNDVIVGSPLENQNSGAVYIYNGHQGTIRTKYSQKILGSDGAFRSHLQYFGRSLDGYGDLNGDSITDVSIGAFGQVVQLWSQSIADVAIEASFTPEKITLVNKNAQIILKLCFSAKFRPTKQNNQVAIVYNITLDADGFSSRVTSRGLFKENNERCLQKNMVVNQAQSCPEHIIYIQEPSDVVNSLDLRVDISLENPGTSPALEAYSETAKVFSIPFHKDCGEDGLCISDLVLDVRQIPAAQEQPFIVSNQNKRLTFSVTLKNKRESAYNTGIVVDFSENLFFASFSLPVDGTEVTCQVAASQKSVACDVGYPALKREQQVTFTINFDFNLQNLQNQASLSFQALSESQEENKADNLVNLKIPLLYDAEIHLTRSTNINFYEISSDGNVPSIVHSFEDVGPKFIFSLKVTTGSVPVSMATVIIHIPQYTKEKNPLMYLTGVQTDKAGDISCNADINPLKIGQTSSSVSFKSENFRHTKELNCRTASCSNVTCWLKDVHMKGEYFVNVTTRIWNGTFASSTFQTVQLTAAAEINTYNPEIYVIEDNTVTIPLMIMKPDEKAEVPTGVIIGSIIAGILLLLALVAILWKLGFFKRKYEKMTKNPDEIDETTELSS
Recombinant α2β1 integrin, sequence (P05556 21-798, chain 2 of 2, further chain): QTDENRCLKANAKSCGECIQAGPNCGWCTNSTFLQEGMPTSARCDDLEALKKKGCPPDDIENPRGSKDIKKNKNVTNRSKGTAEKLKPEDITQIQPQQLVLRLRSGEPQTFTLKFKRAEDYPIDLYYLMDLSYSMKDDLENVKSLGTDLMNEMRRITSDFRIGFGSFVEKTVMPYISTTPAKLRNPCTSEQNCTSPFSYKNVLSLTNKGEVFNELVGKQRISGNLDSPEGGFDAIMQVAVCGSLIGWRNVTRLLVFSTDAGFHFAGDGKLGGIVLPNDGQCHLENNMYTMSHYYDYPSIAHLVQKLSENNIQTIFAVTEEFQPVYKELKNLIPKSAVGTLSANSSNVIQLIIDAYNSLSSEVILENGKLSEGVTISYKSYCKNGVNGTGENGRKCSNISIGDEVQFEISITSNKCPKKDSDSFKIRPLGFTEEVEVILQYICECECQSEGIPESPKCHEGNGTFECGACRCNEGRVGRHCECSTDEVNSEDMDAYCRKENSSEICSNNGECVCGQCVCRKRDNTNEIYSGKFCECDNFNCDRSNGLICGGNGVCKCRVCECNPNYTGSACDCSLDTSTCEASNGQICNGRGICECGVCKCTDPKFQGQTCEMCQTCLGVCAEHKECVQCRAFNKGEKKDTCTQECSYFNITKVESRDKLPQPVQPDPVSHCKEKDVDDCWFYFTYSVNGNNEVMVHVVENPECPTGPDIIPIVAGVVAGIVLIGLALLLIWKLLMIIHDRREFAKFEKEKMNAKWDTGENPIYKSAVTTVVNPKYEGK

Substance: Biotinylated collagen type I (from UniProt P02453;P02465) (natural protein)
- Kd: 1.5 nM

Reference: article PMC3431625
